Read-outs that look alike come from different tables or passages of the source.
T1: OS-9 ΔMRH (Homo sapiens, UniProt Q13438)
T1 chain: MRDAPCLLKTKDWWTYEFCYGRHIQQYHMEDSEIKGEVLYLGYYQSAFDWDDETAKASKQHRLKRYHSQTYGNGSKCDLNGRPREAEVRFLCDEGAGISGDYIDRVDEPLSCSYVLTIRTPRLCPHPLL

T2: OS-9 CTE (Homo sapiens, UniProt Q13438)
T2 chain: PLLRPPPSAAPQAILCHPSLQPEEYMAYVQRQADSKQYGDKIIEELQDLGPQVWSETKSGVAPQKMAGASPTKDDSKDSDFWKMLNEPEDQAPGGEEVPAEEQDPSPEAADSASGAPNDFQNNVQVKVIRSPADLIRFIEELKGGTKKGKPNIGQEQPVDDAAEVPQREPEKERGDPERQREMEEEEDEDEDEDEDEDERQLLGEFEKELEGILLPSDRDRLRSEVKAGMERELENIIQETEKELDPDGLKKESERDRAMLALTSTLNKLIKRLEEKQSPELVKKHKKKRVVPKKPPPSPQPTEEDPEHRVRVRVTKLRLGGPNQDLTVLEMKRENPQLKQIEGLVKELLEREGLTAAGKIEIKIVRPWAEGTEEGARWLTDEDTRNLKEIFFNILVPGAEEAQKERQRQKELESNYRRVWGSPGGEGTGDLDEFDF

B1: Grp94 C domain (protein)
chain: EGVKFDESEKTKESREAIEKEFEPLLNWMKDKALKDKIEKAVVSQRLTESPCALVASQYGWSGNMERIMKAQAYQTGKDISTNYYASQKKTFEINPRHPLIKDMLRRVKEDEDDKTVSDLAVVLFETATLRSGYLLPDTKAYGDRIERMLRLSLNIDPDAKVEEEPEEEPEE
B2: Grp94 M domain (protein)
chain: NDIKPIWQRPSKEVEDDEYKAFYKSFSKESDDPMAYIHFTAEGEVTFKSILFVPTSAPRGLFDEYGSKKSDYIKLYVRRVFITDDFHDMMPKYLNFVKGVVDSDDLPLNVSRETLQQHKLLKVIRKKLVRKTLDMIKKIADEKYNDTFWKEFGTNIKLGVIEDHSNRTRLAKLLRFQSSHHPSDITSLDQYVERMKEKQDKIYFMAGSSRKEAESSPFVERLLKKGYEVIYLTEPVDEYCIQALPEFDGKRFQNVAKE
B3: OS-9 CTE (589–666) (domain or fragment, rat, UniProt Q5RKH6 589-666, looked up)
chain: KIEIKIVRPGAEGKEEDTRWLTDEDTRNLKEIFFNILVQGAEEANKERQRQSELESNYRRVWGSPGGEDTGDLDEFDF
B4: OS-9 ΔMRH (267–666) (domain or fragment, rat, UniProt Q5RKH6 267-666, looked up)
chain: QHEEKVTEEVQDTDHQVWSGSKAAGAPPKKEDVSPTKEDKESEFWKMLQEPEEQATGTEEAQAGEQDLNHEAAADPAPAPPTDFQNNVQVKLIRSPADLIRLIEELKGAEKGKPSVRQEQPGDDTTEAPQREAEAKGKGGEPRGLVEEEDGDEEEEDEDEDEQQLLGEFEKELEGMLLPSDRERLRSEVKAGMERELENIIQETEKELDPEGLRKESEREQAILALTSTLDKLIKRLQESQSPELVQKYKKRRVVPQKPPPSPHPTEEEPEHRVRVRVTKLRHGGPNQDLTVLEMNRENPQLKQIEGLVTEVLEREGLTAEGKIEIKIVRPGAEGKEEDTRWLTDEDTRNLKEIFFNILVQGAEEANKERQRQSELESNYRRVWGSPGGEDTGDLDEFDF
B5: Grp94 MC domains (protein)
chain: NDIKPIWQRPSKEVEDDEYKAFYKSFSKESDDPMAYIHFTAEGEVTFKSILFVPTSAPRGLFDEYGSKKSDYIKLYVRRVFITDDFHDMMPKYLNFVKGVVDSDDLPLNVSRETLQQHKLLKVIRKKLVRKTLDMIKKIADEKYNDTFWKEFGTNIKLGVIEDHSNRTRLAKLLRFQSSHHPSDITSLDQYVERMKEKQDKIYFMAGSSRKEAESSPFVERLLKKGYEVIYLTEPVDEYCIQALPEFDGKRFQNVAKEGVKFDESEKTKESREAIEKEFEPLLNWMKDKALKDKIEKAVVSQRLTESPCALVASQYGWSGNMERIMKAQAYQTGKDISTNYYASQKKTFEINPRHPLIKDMLRRVKEDEDDKTVSDLAVVLFETATLRSGYLLPDTKAYGDRIERMLRLSLNIDPDAKVEEEPEEEPEE
B6: Grp94-C (601–754) (domain or fragment, canine, UniProt P41148 601-754, looked up)
chain: SEKTKESREAIEKEFEPLLNWMKDKALKDKIEKAVVSQRLTESPCALVASQYGWSGNMERIMKAQAYQTGKDISTNYYASQKKTFEINPRHPLIKDMLRRVKEDEDDKTVSDLAVVLFETATLRSGYLLPDTKAYGDRIERMLRLSLNIDPDAK

Columns and labels:
Test in all cases: ITC
OS-9 ΔMRH = target: T1, OS-9 ΔMRH
OS-9 CTE = target: T2, OS-9 CTE
OS-9 ΔMRH (267–666) = target: B4
Grp94-C (601–754) = target: B6
His-Grp94-MC (337–765) [1] = target: T3, His-Grp94-MC (337–765) (canine, UniProt P41148 337-765)
Grp94-M (337–594) = Grp94-M (337–594) (canine, UniProt P41148 337-594)
His-Grp94-MC (337–765) [2] = target: T3, His-Grp94-MC (337–765); remark: listed apart in the source

Kd (OS-9 ΔMRH) | Kd (OS-9 CTE) | Kd (OS-9 ΔMRH (267–666)) | dH (OS-9 ΔMRH (267–666)) | stoichiometry N (OS-9 ΔMRH (267–666)) | Binder | other results
24 µM | – | – | – | – | B1 | –
25 µM | 14 µM | 25.4 ± 2.6 µM | -3.3 ± 0.1 kcal/mol | 2.8 ratio of Grp94 monomer to the OS-9 hexamer | B2 | –
– | – | – | – | – | B3 | Kd (Grp94-C (601–754)): 15 ± 1.1 µM; dH (Grp94-C (601–754)): -33 ± 1.7 kcal/mol; stoichiometry N (Grp94-C (601–754)): 2.9 ratio of Grp94 dimer to the OS-9 hexamer; Kd (His-Grp94-MC (337–765) [1]): 22.4 ± 2 µM; dH (His-Grp94-MC (337–765) [1]): -11.6 ± 1 kcal/mol; stoichiometry N (His-Grp94-MC (337–765) [1]): 2.7 ratio of Grp94 dimer to the OS-9 hexamer; Kd (Grp94-M (337–594)): 14.3 ± 2.1 µM; dH (Grp94-M (337–594)): -9.1 ± 1 kcal/mol; stoichiometry N (Grp94-M (337–594)): 3.4 ratio of Grp94 monomer to the OS-9 hexamer
– | – | – | – | – | B4 | Kd (His-Grp94-MC (337–765) [2]): 8.4 ± 2.3 µM
– | 22 µM | – | -7.2 ± 2.3 kcal/mol | 0.15 ratio of Grp94 dimer to the OS-9 hexamer | B5 | –
– | – | 24.6 ± 1.7 µM | -14 ± 0.7 kcal/mol | 1 ratio of Grp94 dimer to the OS-9 hexamer | B6 | –
